Reference: publication PMC3059893 (Biochemistry, 2011)
Like-named read-outs stand apart in the source and are kept apart here.

B1: Tiam2 PDZ (protein)
chain: NVYDVQLTKTGSVCDFGFAVTAQVDERQHLSRIFISDVLPDGLAYGEGLRKGNEIMTLNGEAVSDLDLKQMEALFSEKSVGLTLIARPPDTKA

What was measured:
Neurexin1 (Homo sapiens) = conditions: cited from earlier work
Model peptide [1] = test: NMR titration; conditions: cited from earlier work
Syndecan1 (Homo sapiens) = test: fluorescence anisotropy; conditions: cited from earlier work
Tiam2 peptide 3 = biological target: T1, Tiam2 peptide 3; test: fluorescence anisotropy
T1 chain: YAALIHKF

Tiam1 peptide 1 = biological target: T2, Tiam1 peptide 1; test: fluorescence anisotropy
T2 chain: YAAYRYRA

Tiam1 peptide 3 = biological target: T3, Tiam1 peptide 3; test: fluorescence anisotropy
T3 chain: YAAKAFRF

Tiam2 peptide 2 = biological target: T4, Tiam2 peptide 2; test: fluorescence anisotropy
T4 chain: YAAGRKHF

Tiam1 peptide 2 = biological target: T5, Tiam1 peptide 2; test: fluorescence anisotropy
T5 chain: YAAEKYWA

Neurexin1 = biological target: T6, Neurexin1 (Homo sapiens); test: fluorescence anisotropy
T6 chain: NKDKEYYV

Caspr4 = biological target: T7, Caspr4 (Homo sapiens); test: fluorescence anisotropy
T7 chain: ENQKEYFF

Syndecan1 = biological target: T8, Syndecan1 (Homo sapiens); test: fluorescence anisotropy
T8 chain: TKQEEFYA

Model peptide [2] = biological target: T9, Model peptide; test: fluorescence anisotropy
T9 chain: SSRKEYYA

Row | Molecule | Kd (Neurexin1 (Homo sapiens)) [µM] | Kd (Model peptide [1]) [µM] | Kd (Syndecan1 (Homo sapiens)) [µM] | Kd (Tiam2 peptide 3) [µM] | Kd (Tiam1 peptide 1) [µM] | Kd (Tiam1 peptide 3) [µM] | Kd (Tiam2 peptide 2) [µM] | Kd (Tiam1 peptide 2) [µM] | Kd (Neurexin1) [µM] | Kd (Caspr4) [µM] | Kd (Syndecan1) [µM] | Kd (Model peptide [2]) [µM]
1 | Tiam1 PDZ (from UniProt Q13009) | 2400 | 112 | 26.9 |  |  |  |  |  |  |  |  | 
2 | B1 |  |  |  | 28.7 | 22.5 | 7.7 | 9.9 | 10.9 | 5 | 3.4 | 200 | 24.1
